# B1: PRPSAP2 (protein, UniProt O60256 1-369, looked up)
# Phosphoribosyl pyrophosphate …: MFCVTPPELETKMNITKGGLVLFSANSNSSCMELSKKIAERLGVEMGKVQVYQEPNRETRVQIQESVRGKDVFIIQTVSKDVNTTIMELLIMVYACKTSCAKSIIGVIPYFPYSKQCKMRKRGSIVSKLLASMMCKAGLTHLITMDLHQKEIQGFFNIPVDNLRASPFLLQYIQEEIPDYRNAVIVAKSPASAKRAQSFAERLRLGIAVIHGEAQDAESDLVDGRHSPPMVRSVAAIHPSLEIPMLIPKEKPPITVVGDVGGRIAIIVDDIIDDVDSFLAAAETLKERGAYKIFVMATHGLLSSDAPRRIEESAIDEVVVTNTIPHEVQKLQCPKIKTVDISMILSEAIRRIHNGESMSYLFRNIGLDD
# B2: NDNF (protein, UniProt Q8TB73 20-568, looked up)
# Protein NDNF: QKLPTRDEELFQMQIRDKAFFHDSSVIPDGAEISSYLFRDTPKRYFFVVEEDNTPLSVTVTPCDAPLEWKLSLQELPEDRSGEGSGDLEPLEQQKQQIINEEGTELFSYKGNDVEYFISSSSPSGLYQLDLLSTEKDTHFKVYATTTPESDQPYPELPYDPRVDVTSLGRTTVTLAWKPSPTASLLKQPIQYCVVINKEHNFKSLCAVEAKLSADDAFMMAPKPGLDFSPFDFAHFGFPSDNSGKERSFQAKPSPKLGRHVYSRPKVDIQKICIGNKNIFTVSDLKPDTQYYFDVFVVNINSNMSTAYVGTFARTKEEAKQKTVELKDGKITDVFVKRKGAKFLRFAPVSSHQKVTFFIHSCLDAVQIQVRRDGKLLLSQNVEGIQQFQLRGKPKAKYLVRLKGNKKGASMLKILATTRPTKQSFPSLPEDTRIKAFDKLRTCSSATVAWLGTQERNKFCIYKKEVDDNYNEDQKKREQNQCLGPDIRKKSEKVLCKYFHSQNLQKAVTTETIKGLQPGKSYLLDVYVIGHGGHSVKYQSKVVKTRKFC
# B3: WDR26 (protein, UniProt Q9H7D7 1-661, looked up)
# WD repeat-containing protein …: MQANGAGGGGGGGGGGGGGGGGGGGQGQTPELACLSAQNGESSPSSSSSAGDLAHANGLLPSAPSAASNNSNSLNVNNGVPGGAAAASSATVAAASATTAASSSLATPELGSSLKKKKRLSQSDEDVIRLIGQHLNGLGLNQTVDLLMQESGCRLEHPSATKFRNHVMEGDWDKAENDLNELKPLVHSPHAIVVRGALEISQTLLGIIVRMKFLLLQQKYLEYLEDGKVLEALQVLRCELTPLKYNTERIHVLSGYLMCSHAEDLRAKAEWEGKGTASRSKLLDKLQTYLPPSVMLPPRRLQTLLRQAVELQRDRCLYHNTKLDNNLDSVSLLIDHVCSRRQFPCYTQQILTEHCNEVWFCKFSNDGTKLATGSKDTTVIIWQVDPDTHLLKLLKTLEGHAYGVSYIAWSPDDNYLVACGPDDCSELWLWNVQTGELRTKMSQSHEDSLTSVAWNPDGKRFVTGGQRGQFYQCDLDGNLLDSWEGVRVQCLWCLSDGKTVLASDTHQRIRGYNFEDLTDRNIVQEDHPIMSFTISKNGRLALLNVATQGVHLWDLQDRVLVRKYQGVTQGFYTIHSCFGGHNEDFIASGSEDHKVYIWHKRSELPIAELTGHTRTVNCVSWNPQIPSMMASASDDGTVRIWGPAPFIDHQNIEEECSSMDS
# B4: LIPG (protein, UniProt Q9Y5X9 21-500, looked up)
# Endothelial lipase: SPVPFGPEGRLEDKLHKPKATQTEVKPSVRFNLRTSKDPEHEGCYLSVGHSQPLEDCSFNMTAKTFFIIHGWTMSGIFENWLHKLVSALHTREKDANVVVVDWLPLAHQLYTDAVNNTRVVGHSIARMLDWLQEKDDFSLGNVHLIGYSLGAHVAGYAGNFVKGTVGRITGLDPAGPMFEGADIHKRLSPDDADFVDVLHTYTRSFGLSIGIQMPVGHIDIYPNGGDFQPGCGLNDVLGSIAYGTITEVVKCEHERAVHLFVDSLVNQDKPSFAFQCTDSNRFKKGICLSCRKNRCNSIGYNAKKMRNKRNSKMYLKTRAGMPFRVYHYQMKIHVFSYKNMGEIEPTFYVTLYGTNADSQTLPLEIVERIEQNATNTFLVYTEEDLGDLLKIQLTWEGASQSWYNLWKEFRSYLSQPRNPGRELNIRRIRVKSGETQRKLTFCTEDPENTSISPGRELWFRKCRDGWRMKNETSPTVELP
# B5: RAP2B (protein, UniProt P61225 1-180, looked up)
# Ras-related protein Rap-2b: MREYKVVVLGSGGVGKSALTVQFVTGSFIEKYDPTIEDFYRKEIEVDSSPSVLEILDTAGTEQFASMRDLYIKNGQGFILVYSLVNQQSFQDIKPMRDQIIRVKRYERVPMILVGNKVDLEGEREVSYGEGKALAEEWSCPFMETSAKNKASVDELFAEIVRQMNYAAQPNGDEGCCSAC
# B6: ZYX (protein, UniProt Q15942 2-572, looked up)
# Zyxin: AAPRPSPAISVSVSAPAFYAPQKKFGPVVAPKPKVNPFRPGDSEPPPAPGAQRAQMGRVGEIPPPPPEDFPLPPPPLAGDGDDAEGALGGAFPPPPPPIEESFPPAPLEEEIFPSPPPPPEEEGGPEAPIPPPPQPREKVSSIDLEIDSLSSLLDDMTKNDPFKARVSSGYVPPPVATPFSSKSSTKPAAGGTAPLPPWKSPSSSQPLPQVPAPAQSQTQFHVQPQPQPKPQVQLHVQSQTQPVSLANTQPRGPPASSPAPAPKFSPVTPKFTPVASKFSPGAPGGSGSQPNQKLGHPEALSAGTGSPQPPSFTYAQQREKPRVQEKQHPVPPPAQNQNQVRSPGAPGPLTLKEVEELEQLTQQLMQDMEHPQRQNVAVNELCGRCHQPLARAQPAVRALGQLFHIACFTCHQCAQQLQGQQFYSLEGAPYCEGCYTDTLEKCNTCGEPITDRMLRATGKAYHPHCFTCVVCARPLEGTSFIVDQANRPHCVPDYHKQYAPRCSVCSEPIMPEPGRDETVRVVALDKNFHMKCYKCEDCGKPLSIEADDNGCFPLDGHVLCRKCHTARAQT
# B7: GART (protein, UniProt P22102 2-1010, looked up)
# Trifunctional purine …: AARVLIIGSGGREHTLAWKLAQSHHVKQVLVAPGNAGTACSEKISNTAISISDHTALAQFCKEKKIEFVVVGPEAPLAAGIVGNLRSAGVQCFGPTAEAAQLESSKRFAKEFMDRHGIPTAQWKAFTKPEEACSFILSADFPALVVKASGLAAGKGVIVAKSKEEACKAVQEIMQEKAFGAAGETIVIEELLDGEEVSCLCFTDGKTVAPMPPAQDHKRLLEGDGGPNTGGMGAYCPAPQVSNDLLLKIKDTVLQRTVDGMQQEGTPYTGILYAGIMLTKNGPKVLEFNCRFGDPECQVILPLLKSDLYEVIQSTLDGLLCTSLPVWLENHTALTVVMASKGYPGDYTKGVEITGFPEAQALGLEVFHAGTALKNGKVVTHGGRVLAVTAIRENLISALEEAKKGLAAIKFEGAIYRKDVGFRAIAFLQQPRSLTYKESGVDIAAGNMLVKKIQPLAKATSRSGCKVDLGGFAGLFDLKAAGFKDPLLASGTDGVGTKLKIAQLCNKHDTIGQDLVAMCVNDILAQGAEPLFFLDYFSCGKLDLSVTEAVVAGIAKACGKAGCALLGGETAEMPDMYPPGEYDLAGFAVGAMERDQKLPHLERITEGDVVVGIASSGLHSNGFSLVRKIVAKSSLQYSSPAPDGCGDQTLGDLLLTPTRIYSHSLLPVLRSGHVKAFAHITGGGLLENIPRVLPEKLGVDLDAQTWRIPRVFSWLQQEGHLSEEEMARTFNCGVGAVLVVSKEQTEQILRDIQQHKEEAWVIGSVVARAEGSPRVKVKNLIESMQINGSVLKNGSLTNHFSFEKKKARVAVLISGTGSNLQALIDSTREPNSSAQIDIVISNKAAVAGLDKAERAGIPTRVINHKLYKNRVEFDSAIDLVLEEFSIDIVCLAGFMRILSGPFVQKWNGKMLNIHPSLLPSFKGSNAHEQALETGVTVTGCTVHFVAEDVDAGQIILQEAVPVKRGDTVATLSERVKLAEHKIFPAALQLVASGTVQLGENGKICWVKEE
# B8: AP1B1 (protein, UniProt Q10567 1-949, looked up)
# AP-1 complex subunit beta-1: MTDSKYFTTTKKGEIFELKAELNSDKKEKKKEAVKKVIASMTVGKDVSALFPDVVNCMQTDNLELKKLVYLYLMNYAKSQPDMAIMAVNTFVKDCEDPNPLIRALAVRTMGCIRVDKITEYLCEPLRKCLKDEDPYVRKTAAVCVAKLHDINAQLVEDQGFLDTLKDLISDSNPMVVANAVAALSEIAESHPSSNLLDLNPQSINKLLTALNECTEWGQIFILDCLANYMPKDDREAQSICERVTPRLSHANSAVVLSAVKVLMKFMEMLSKDLDYYGTLLKKLAPPLVTLLSAEPELQYVALRNINLIVQKRPEILKHEMKVFFVKYNDPIYVKLEKLDIMIRLASQANIAQVLAELKEYATEVDVDFVRKAVRAIGRCAIKVEQSAERCVSTLLDLIQTKVNYVVQEAIVVIKDIFRKYPNKYESVIATLCENLDSLDEPEARAAMIWIVGEYAERIDNADELLESFLEGFHDESTQVQLQLLTAIVKLFLKKPTETQELVQQVLSLATQDSDNPDLRDRGYIYWRLLSTDPVAAKEVVLAEKPLISEETDLIEPTLLDELICYIGTLASVYHKPPSAFVEGGRGVVHKSLPPRTASSESAESPETAPTGAPPGEQPDVIPAQGDLLGDLLNLDLGPPVSGPPLATSSVQMGAVDLLGGGLDSLMGDEPEGIGGTNFVAPPTAAVPANLGAPIGSGLSDLFDLTSGVGTLSGSYVAPKAVWLPAMKAKGLEISGTFTRQVGSISMDLQLTNKALQVMTDFAIQFNRNSFGLAPAAPLQVHAPLSPNQTVEISLPLSTVGSVMKMEPLNNLQVAVKNNIDVFYFSTLYPLHILFVEDGKMDRQMFLATWKDIPNENEAQFQIRDCPLNAEAASSKLQSSNIFTVAKRNVEGQDMLYQSLKLTNGIWVLAELRIQPGNPSCTDLELSLKCRAPEVSQHVYQAYETILKN
# B9: HNRNPC (protein, UniProt P07910 2-306, looked up)
# Heterogeneous nuclear …: ASNVTNKTDPRSMNSRVFIGNLNTLVVKKSDVEAIFSKYGKIVGCSVHKGFAFVQYVNERNARAAVAGEDGRMIAGQVLDINLAAEPKVNRGKAGVKRSAAEMYGSVTEHPSPSPLLSSSFDLDYDFQRDYYDRMYSYPARVPPPPPIARAVVPSKRQRVSGNTSRRGKSGFNSKSGQRGSSKSGKLKGDDLQAIKKELTQIKQKVDSLLENLEKIEKEQSKQAVEMKNDKSEEEQSSSSVKKDETNVKMESEGGADDSAEEGDLLDDDDNEDRGDDQLELIKDDEKEAEEGEDDRDSANGEDDS
# Tested on: DYT1 patient plasma derived EVs
# Experiment: Plasma-derived EV proteomics (ExoQuick ULTRA, DIA LC/MS/MS), DYT1 vs Healthy Controls
# Set-up: species or system human
# Details: Hs. Plasma EVs (DYT1/WT); significance of genotype difference
# Protocol: Data was obtained for extracellular vesicles using previously acquired samples. The ExoQuick® ULTRA EV Isolation System was used to fractionate and enrich EVs from plasma. Isolated plasma EV samples were then submitted to proteomic analysis by the Duke Proteomics and Metabolomics Core Facility (DPMCF). At the DPMCF, quantitative (LC/MS/MS) was performed on 500 ng of each sample, using an EvoSep One UPLC system coupled to a Thermo Orbitrap Astral high-resolution accurate mass tandem mass spectrometer (Thermo). Briefly, the sample was eluted directly from an Evotip which was subjected to a low organic wash and then subjected to an analytical separation using a 1.7 μm EvoSep 150 um ID×15 cm endurance (EveoSep) column running an SPD30 gradient from approximately 5 to 30% acetonitrile with 0.1% formic acid with a column temperature of 50 C. Data collection on the Orbitrap Astral mass spectrometer was performed in a data-independent acquisition (DIA) mode of acquisition with a r=240,000 (@m/z 200) full MS scan from m/z 380-980 with a target AGC value of 4e5 ions. Fixed DIA, windows of 4 m/z from m/z 380 to 980 DIA MS/MS scans were acquired in the Astral with a target AGC value of 5e4 and a max fill time of 6 ms. HCD collision energy setting of 27% was used for all MS2 scans.
row,Molecule,-LogP
1,B1,1.629
2,B2,1.312
3,B3,1.772
4,B4,1.303
5,B5,2.656
6,B6,2.225
7,B7,1.317
8,B8,2.413
9,B9,2.933

# Reference: patent US20260266848A1, “COMPOSITIONS AND METHODS FOR DIAGNOSING AND TREATING DYSTONIA” (Duke University, priority 2023, published 2026)
